Test [1] has as its target bovine α-thrombin (bovine).
The target in test [2] is bovine α-thrombin (bovine). Description: enzyme inhibition kinetics (chromogenic substrate); 1 nM bovine α-thrombin, 0-200 µM Tos-Gly-Pro-Arg-p-nitroanilide, 0-800 nM madanin; 37 °C, 50 mM Tris-HCl pH 8.0, 50 mM NaCl, 1 mg/ml bovine serum albumin; fitted to the competitive inhibition model.

In the test with human α-thrombin (human), madanin-2 fragment 56-61 (peptide) gave a prolongation (fold) of thrombin time of human plasma, 10 µM fragment (17 s against 17 s); competition with fibrinogen for thrombin; species of the assay's thrombin not stated of 1 fold.
Consider madanin-2 fragment 1-21 (peptide), for which the inhibition of thrombin amidolytic activity (%), 1 nM thrombin, 50 µM Tos-Gly-Pro-Arg-p-nitroanilide, 1 µM fragment, after 120 min in test [1] was 5.83%. In the test with human α-thrombin (human), this substance registered a prolongation (fold) of thrombin time of human plasma, 10 µM fragment (18 s against 17 s); competition with fibrinogen for thrombin; species of the assay's thrombin not stated of 1.06 fold.
Broadly, the Ki is a measure of affinity in units of concentration, obtained from inhibition or displacement. Higher therefore signals lower affinity. In test [1], “madanin-1 (mature, recombinant) (natural protein)” came in with an inhibition of thrombin amidolytic activity (%), 1 nM thrombin, 50 µM Tos-Gly-Pro-Arg-p-nitroanilide, 1 µM inhibitor, after 120 min of 43.8%. The substance further displayed an inhibition constant Ki in test [2] of 55.6 nM.
Take madanin-2 fragment 22-55 (peptide): the inhibition of thrombin amidolytic activity (%), 1 nM thrombin, 50 µM Tos-Gly-Pro-Arg-p-nitroanilide, 1 µM fragment, after 120 min in test [1] turned out to be 6.11%. For the same substance, in the test with human α-thrombin (human), the prolongation (fold) of thrombin time of human plasma, 10 µM fragment (18 s against 17 s); competition with fibrinogen for thrombin; species of the assay's thrombin not stated came out at 1.06 fold.
With madanin-1 fragment 1-21 (peptide), the inhibition of thrombin amidolytic activity (%), 1 nM thrombin, 50 µM Tos-Gly-Pro-Arg-p-nitroanilide, 1 µM fragment, after 120 min in test [1] was 4.6%. In addition, in the test with human α-thrombin (human), the prolongation (fold) of thrombin time of human plasma, 10 µM fragment (17 s against 17 s); competition with fibrinogen for thrombin; species of the assay's thrombin not stated came out at 1 fold.
For madanin-1 fragment 55-60 (peptide), the prolongation (fold) of thrombin time of human plasma, 10 µM fragment (17 s against 17 s); competition with fibrinogen for thrombin; species of the assay's thrombin not stated with human α-thrombin (human) was 1 fold.
As to madanin-1 fragment 22-54 (peptide), in test [1], the inhibition of thrombin amidolytic activity (%), 1 nM thrombin, 50 µM Tos-Gly-Pro-Arg-p-nitroanilide, 1 µM fragment, after 120 min is 5.77%. In the test with human α-thrombin (human), this substance registered a prolongation (fold) of thrombin time of human plasma, 10 µM fragment (20 s against 17 s); competition with fibrinogen for thrombin; species of the assay's thrombin not stated of 1.18 fold.
With “madanin-2 (mature, recombinant) (natural protein)”, in test [1], the inhibition of thrombin amidolytic activity (%), 1 nM thrombin, 50 µM Tos-Gly-Pro-Arg-p-nitroanilide, 1 µM inhibitor, after 120 min stood at 47.2%. The same substance gave a Ki in test [2] of 31.6 nM.

The values are drawn from PMC3741208.
